# B1: GP2SLGP2: two GP2 aptamers connected back to back (Helper and Center); SEQ ID NO: 59 (nucleic acid)
# chain: GCTAGCCACACACACAAATCTGGGGAGGTGAAGAATACGACCACCTGCGTTTTATACTTTGTTAAAACATACCAGATCGAAAGATCTGGGGAGGTGAAGAATACGACCACCTAATAAAGTATAAAGTGCAAAACATACCAGATCTGTGTGTTGGTTTTTTGTGTGGAATTCCACACACACAAATCTGGGGAGGTGAAGAATACGACCACCTGCGTTTTATACTTTGTTAAAACATACCAGATCGAAAGATCTGGGGAGGTGAAGAATACGACCACCTAATAAAGTATAAAGTGCAAAACATACCAGATCTGTGTGTTGGTTTTTTGTGTGAACGGGGGAGGGGGAGGAAAGGGGGAGGGGGAGCGGCCGC
# modifications: Synthetic Primerr
# B2: D11A: GP2SLGP2 variant in stem/loop-II region; SEQ ID NO: 61 (nucleic acid)
# chain: GCTAGCGAATTGCACACACACAAATCTGGGGAGGTGAAGAATACGACCACCTGCGTTTTATACTTTGTTAAAACATACCATCCTAAGCCTAAGGCAAACGCTATGGTATGGATGGGGAGGTGAAGAATACGACCACCTAATAAAGTATAAAGTGCAAAACATACCAGATCTGTGTGTTGGTTTTTTGTGTGGAATTCCACACACACAAATCTGGGGAGGTGAAGAATACGACCACCTGCGTTTTATACTTTGTTAAAACATACCAGATCGAAAGATCTGGGGAGGTGAAGAATACGACCACCTAATAAAGTATAAAGTGCAAAACATACCAGATCTGTGTGTTGGTTTTTTGTGTGAACGGGGGAGGGGGAGGAAAGGGGGAGGGGGAGCGGCCGC
# modifications: Synthetic Primer
# B3: C12: GP2SLGP2 variant in stem/loop-II region, central stem equivalent length 20 bp; SEQ ID NO: 60 (nucleic acid)
# chain: CTGCAGCACACACACAAATCTGGGGAGGTGAAGAATACGACCACCTGCGTTTTATACTTTGTTAAAACATACCAGATCGAATTCGATCTGGGGAGGTGAAGAATACGACCACCTAATAAAGTATAAAGTGCAAAACATACCAGATCTGTGTGTTGGTTTTTTGTGTGGCTAGCCACACACACAAATCTGGGGAGGTGAAGAATACGACCACCTGCGTTTTATACTTTGTTAAAACATACCAGATCGAATTCGATCTGGGGAGGTGAAGAATACGACCACCTAATAAAGTATAAAGTGCAAAACATACCAGATCTGTGTGTTGGTTTTTTGTGTGAACGGGGGAGGGGGAGGAAAGGGGGAGGGGGAGCGGCCGC
# modifications: Synthetic Primer
# Assays:
# hammerhead ribozyme = settings: retina of nude mice, toyocamycin drug pellet under dorsal skin, ribozyme-based sensor; cited from earlier work
# [1] = tested on: luciferase reporter gene expression; assay: Luciferase reporter assay of tetracycline-aptamer polyA switch constructs with and without tc; format: cell-based, human
# From the text: The general strategy for detecting and imaging proteins via modulation of polyA cleavage is critically dependent upon the highly efficient cleavage of the polyA signal at the 5′ UTR (FIG. 1). A first step was to test candidate polyA signals and associated upstream and downstream motifs that enable efficient polyA cleavage in cells. For testing polyA cleavage efficiency, a transient transfection assay involving a mammalian expression vector^49 was used with a GFP or luciferase reporter (merely as examples). Candidate polyA signal sequences were cloned at the 5′UTR of the reporter gene or transgene within the expression vector.
Molecule,induced luciferase reporter expression (hammerhead ribozyme),"induction (fold), ratio of luciferase activity with and without Tc ([1]; 5 μg/mL Tc)","induction (fold), ratio of luciferase activity with and without Tc ([1]; 15 μg/mL Tc)"
N#Cc1cn([C@@H]2O[C@H](CO)[C@@H](O)[C@H]2O)c2ncnc(N)c12 [toyocamycin],up to 180 fold,–,–
B1,–,70 fold,104 fold
B2,–,84 fold,127 fold
B3,–,94 fold,151 fold
